This passage reports stoichiometry N results from article PMC8220419.

The stoichiometry N is the number of molecules, sites or subunits per partner or assembly.

For assay [1], the target named is TGFBIp A546T (residues 45–632) (human) (UniProt Q15582). The assay is described as follows: SEC; calibrated SEC, Superdex 200 Increase 10/300 GL in PBS; TGFBIp at 7 μM. For orientation: SEC sorts molecules by how far they enter the pores of the column.
The target in assay [2] is TGFBIp R124H (residues 45–632) (human) (UniProt Q15582). The assay can be described thus: in-line SEC-SAXS; in-line Superdex Increase 200 3.2/300 in 20 mM Tris, 150 mM NaCl, pH 7.4; ~0.5 to 1 mg/ml; rigid-body modeling.
Assay [3] shares this target. The assay can be described thus: SEC; calibrated SEC, Superdex 200 Increase 10/300 GL in PBS; TGFBIp at 7 μM.
The target in assay [4] is TGFBIp R555W (residues 45–632) (human) (UniProt Q15582). The assay is described as follows: in-line SEC-SAXS; in-line Superdex Increase 200 3.2/300 in 20 mM Tris, 150 mM NaCl, pH 7.4; ~0.5 to 1 mg/ml; rigid-body modeling.
For assay [5] the target is unchanged. The assay is described as follows: SEC; calibrated SEC, Superdex 200 Increase 10/300 GL in PBS; TGFBIp at 7 μM.
For assay [6], the target named is wildtype transforming growth factor-β–induced protein (TGFBIp), residues 45–632 (human) (UniProt Q15582). The assay can be described thus: in-line SEC-SAXS; in-line Superdex Increase 200 3.2/300 in 20 mM Tris, 150 mM NaCl, pH 7.4; ~0.5 to 1 mg/ml; rigid-body modeling.
The target is the same in assay [7]. The assay can be described thus: SEC; calibrated SEC, Superdex 200 Increase 10/300 GL in PBS; TGFBIp at 7 μM.

For the substance “TGFBIp A546T (residues 45–632) (from UniProt Q15582 45-632) (domain or fragment)”, the stoichiometry N in assay [1] is 2.
Turning to “TGFBIp R124H (residues 45–632) (from UniProt Q15582 45-632) (domain or fragment)”, the stoichiometry N in assay [2] and in assay [3] was 2 throughout.
Consider “TGFBIp R555W (residues 45–632) (from UniProt Q15582 45-632) (domain or fragment)”, for which the stoichiometry N in assay [4] and in assay [5] was 2 each time.
Consider “wildtype transforming growth factor-β–induced protein (TGFBIp), residues 45–632 (from UniProt Q15582 45-632) (domain or fragment)”, for which the stoichiometry N in assay [6] and in assay [7] was 2 throughout.
